Experimental data as given in the supplement of paper PMC10567573.

B1: ZBTB22 (parent)
chain: HTGLKPYECGVCAKKFMWRDSFMR
B2: RSPH3 (parent)
chain: VDVQTELYLEEIADRIIEVDMECQ

Variants of: B1
Assay: protein stability index of a GFP-peptide fusion (GPS, HEK-293T) (PSI 1-6); higher = more stable
Settings: c terminus: a fixed tail appended
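Further: lentivirally expressed fusions sorted by FACS into six bins by GFP to DsRed ratio, PSI derived from sequencing read proportions per bin multiplied by bin number.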

Variant	protein stability index
HTGLKPYECGVCAKKFMWRDSFMC [R24C]	2.94
HTGLKPYECGVCAKKFMWRDSFMD [R24D]	1.37
HTGLKPYECGVCAKKFMWRDSFMF [R24F]	2.3
HTGLKPYECGVCAKKFMWRDSFMG [R24G]	1.87
HTGLKPYECGVCAKKFMWRDSFMH [R24H]	3.35
HTGLKPYECGVCAKKFMWRDSFMI [R24I]	1.79
HTGLKPYECGVCAKKFMWRDSFMK [R24K]	1.71
HTGLKPYECGVCAKKFMWRDSFML [R24L]	3.44
HTGLKPYECGVCAKKFMWRDSFMM [R24M]	3.19
HTGLKPYECGVCAKKFMWRDSFMN [R24N]	3.03
HTGLKPYECGVCAKKFMWRDSFMQ [R24Q]	1.6
HTGLKPYECGVCAKKFMWRDSFMS [R24S]	2.96
HTGLKPYECGVCAKKFMWRDSFMT [R24T]	3.9
HTGLKPYECGVCAKKFMWRDSFMV [R24V]	2.82
HTGLKPYECGVCAKKFMWRDSFMW [R24W]	1.67

Variants of: B2
Assay: as above
Settings: c terminus: a fixed tail appended

Variant	protein stability index
ADVQTELYLEEIADRIIEVDMECQ [V1A]	3.1
CDVQTELYLEEIADRIIEVDMECQ [V1C]	2.36
DDVQTELYLEEIADRIIEVDMECQ [V1D]	3.3
EDVQTELYLEEIADRIIEVDMECQ [V1E]	3.11
FDVQTELYLEEIADRIIEVDMECQ [V1F]	1.55
GDVQTELYLEEIADRIIEVDMECQ [V1G]	2.86
HDVQTELYLEEIADRIIEVDMECQ [V1H]	3.24
IDVQTELYLEEIADRIIEVDMECQ [V1I]	1.64
KDVQTELYLEEIADRIIEVDMECQ [V1K]	2.79
LDVQTELYLEEIADRIIEVDMECQ [V1L]	1.72
MDVQTELYLEEIADRIIEVDMECQ [V1M]	2.39
NDVQTELYLEEIADRIIEVDMECQ [V1N]	3.75
PDVQTELYLEEIADRIIEVDMECQ [V1P]	3.11
QDVQTELYLEEIADRIIEVDMECQ [V1Q]	3.25
RDVQTELYLEEIADRIIEVDMECQ [V1R]	2.57
SDVQTELYLEEIADRIIEVDMECQ [V1S]	3.88
TDVQTELYLEEIADRIIEVDMECQ [V1T]	3.75
WDVQTELYLEEIADRIIEVDMECQ [V1W]	2.44
YDVQTELYLEEIADRIIEVDMECQ [V1Y]	1.94
VAVQTELYLEEIADRIIEVDMECQ [D2A]	1.63
VCVQTELYLEEIADRIIEVDMECQ [D2C]	2.57
VEVQTELYLEEIADRIIEVDMECQ [D2E]	2.51
VGVQTELYLEEIADRIIEVDMECQ [D2G]	1.81
VIVQTELYLEEIADRIIEVDMECQ [D2I]	2.61
VKVQTELYLEEIADRIIEVDMECQ [D2K]	1.91
VLVQTELYLEEIADRIIEVDMECQ [D2L]	2.6
VMVQTELYLEEIADRIIEVDMECQ [D2M]	3.88

Variant	protein stability index
VNVQTELYLEEIADRIIEVDMECQ [D2N]	2.17
VPVQTELYLEEIADRIIEVDMECQ [D2P]	3.08
VQVQTELYLEEIADRIIEVDMECQ [D2Q]	1.72
VRVQTELYLEEIADRIIEVDMECQ [D2R]	1.76
VSVQTELYLEEIADRIIEVDMECQ [D2S]	1.81
VTVQTELYLEEIADRIIEVDMECQ [D2T]	2.39
VYVQTELYLEEIADRIIEVDMECQ [D2Y]	3.84
VDAQTELYLEEIADRIIEVDMECQ [V3A]	3.22
VDCQTELYLEEIADRIIEVDMECQ [V3C]	2.35
VDDQTELYLEEIADRIIEVDMECQ [V3D]	2.66
VDEQTELYLEEIADRIIEVDMECQ [V3E]	2.66
VDGQTELYLEEIADRIIEVDMECQ [V3G]	3.74
VDHQTELYLEEIADRIIEVDMECQ [V3H]	2.4
VDKQTELYLEEIADRIIEVDMECQ [V3K]	2.7
VDLQTELYLEEIADRIIEVDMECQ [V3L]	3.01
VDMQTELYLEEIADRIIEVDMECQ [V3M]	2.26
VDNQTELYLEEIADRIIEVDMECQ [V3N]	2.99
VDPQTELYLEEIADRIIEVDMECQ [V3P]	3.36
VDQQTELYLEEIADRIIEVDMECQ [V3Q]	3.04
VDRQTELYLEEIADRIIEVDMECQ [V3R]	3.38
VDSQTELYLEEIADRIIEVDMECQ [V3S]	2.56
VDTQTELYLEEIADRIIEVDMECQ [V3T]	2.92
VDWQTELYLEEIADRIIEVDMECQ [V3W]	2.14
VDYQTELYLEEIADRIIEVDMECQ [V3Y]	1.85
VDVATELYLEEIADRIIEVDMECQ [Q4A]	2.19
VDVCTELYLEEIADRIIEVDMECQ [Q4C]	2.29
VDVDTELYLEEIADRIIEVDMECQ [Q4D]	1.45

Variant	protein stability index
VDVETELYLEEIADRIIEVDMECQ [Q4E]	2.32
VDVFTELYLEEIADRIIEVDMECQ [Q4F]	3.48
VDVGTELYLEEIADRIIEVDMECQ [Q4G]	3.62
VDVHTELYLEEIADRIIEVDMECQ [Q4H]	3.22
VDVKTELYLEEIADRIIEVDMECQ [Q4K]	2.43
VDVLTELYLEEIADRIIEVDMECQ [Q4L]	1.97
VDVMTELYLEEIADRIIEVDMECQ [Q4M]	2.07
VDVNTELYLEEIADRIIEVDMECQ [Q4N]	1.85
VDVPTELYLEEIADRIIEVDMECQ [Q4P]	2.39
VDVSTELYLEEIADRIIEVDMECQ [Q4S]	2.7
VDVTTELYLEEIADRIIEVDMECQ [Q4T]	2.47
VDVVTELYLEEIADRIIEVDMECQ [Q4V]	3.19
VDVWTELYLEEIADRIIEVDMECQ [Q4W]	2.27
VDVYTELYLEEIADRIIEVDMECQ [Q4Y]	1.66
VDVQAELYLEEIADRIIEVDMECQ [T5A]	2.3
VDVQCELYLEEIADRIIEVDMECQ [T5C]	1.75
VDVQDELYLEEIADRIIEVDMECQ [T5D]	3.17
VDVQEELYLEEIADRIIEVDMECQ [T5E]	3.08
VDVQFELYLEEIADRIIEVDMECQ [T5F]	2.96
VDVQGELYLEEIADRIIEVDMECQ [T5G]	2.46
VDVQHELYLEEIADRIIEVDMECQ [T5H]	2.42
VDVQKELYLEEIADRIIEVDMECQ [T5K]	3.87
VDVQMELYLEEIADRIIEVDMECQ [T5M]	2.38
VDVQNELYLEEIADRIIEVDMECQ [T5N]	3.23
VDVQPELYLEEIADRIIEVDMECQ [T5P]	3.27
